Assay results published in patent US7250164.

Biological target: HmenB3 monoclonal antibody against Neisseria meningitidis serogroup B capsular polysaccharide
Experiment: cell-based or functional assay

B1: Naid60 anti-idiotypic monoclonal antibody (Ab2) to HmenB3 (antibody, IgG1, V domains shown)
VH: EVKLVESGGGLVQPGGSLKLSCATSGFLFTDYYMFWVRQTPEKRLEWVAYISNGGGDTYYPDTVKGRFTISRDNAKNALYLQMSRLKSEDTAMYYCARHKGYYGYYYALDYWGQGT
VL: DIQLTQSPATLSVTPGDSVSLSCRASQSISNNLHWYQQKSHESPRLLIKYASQSISGIPSRFSGSGSGTDFTLSINSVETEDFGMYFCQQSNNWPLTFGAGTK
bacterial cell death rate (complement-mediated bactericidal activity of HmenB3 against NMGB) at 4 mg/L Naid60: 57.7%
bacterial cell death rate (complement-mediated bactericidal activity of HmenB3 against NMGB) at 40 mg/L Naid60: 0%
